± gives the standard deviation.

The data set in a line: protein stability index of a GFP-peptide fusion (GPS, HEK-293T) (PSI 1-6); higher = more stable. Particulars: c terminus: a fixed tail appended.
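Further: 24-mer peptide tiles fused after GFP, lentivirally expressed, FACS-sorted into six equal bins by GFP/DsRed ratio, decoded by Illumina sequencing, PSI is the read-weighted mean bin number.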

DEDLRRQMQDDEQKTRLLEDSVSR [PALM]: the protein stability index is 5.46 ± 0.32 (treatment: DMSO) and 5.31 ± 0.38 (treatment: MLN4924 1 uM, 8 h).
The like results for DEEEEEEEEEEGRFYYSEDDHGDE [KCNA4] were, in that order, 5.56 ± 0.14 and 5.55 ± 0.28.
The like results for DEPGKGGFWRIDPQYAERLLSGAF [FOXJ1] were, in that order, 2.6 ± 0.25 and 2.73 ± 0.34.
The like results for DETLYQEFNGLKKMNPKLKTLLAI [CHIT1] were, in that order, 2.3 ± 0.17 and 2.52 ± 0.47.
For DFGDMHSYVRSRKRLREEEAARLF [TRIB1], the protein stability index is, setting by setting: (treatment: DMSO) 3.5 ± 0.3; (treatment: MLN4924 1 uM, 8 h) 3.85 ± 0.45.
The like results for DFLIRDSESSPSDFSVSLKASGKN [NCK2] were, in that order, 4.25 ± 0.25 and 4.4 ± 0.18.
The like results for DFPAHRIVLAACSDYFCAMFTSEL [KLHL12] were, in that order, 3.08 ± 0.41 and 3.27 ± 0.51.
The like results for DFVNLMAYDFHGSWEKVTGHNSPL [CHIT1] were, in that order, 1.9 ± 0.23 and 2.06 ± 0.19.
Turning to DGHRPEWTFYPRFSSNIHTYHVGK [SPATS1], the protein stability index is 2.96 ± 0.077 (treatment: DMSO) and 3.01 ± 0.21 (treatment: MLN4924 1 uM, 8 h).
For DGRSLSKLNLCEDGPCHKRRASIC [SCARA5], the protein stability index runs as follows: (treatment: DMSO) 3.88 ± 0.33; (treatment: MLN4924 1 uM, 8 h) 3.93 ± 0.3.
The like results for DHSQRICEVWACNLDEEMKKIRQV [CNOT7] were, in that order, 3.43 ± 0.2 and 3.7 ± 0.18.
The like results for DIDMTDYDDVRRCCSSADICPKCW [PRIM1] were, in that order, 4.8 ± 0.41 and 4.84 ± 0.25.
The like results for DLAKLVDQQNPTLGETPENSNLEE [ZNF449] were, in that order, 5.47 ± 0.16 and 5.32 ± 0.24.
Regarding DLAKTGCVDLTITNLLEGAVAFMP [AUP1], the protein stability index (treatment: DMSO) amounted to 2.21 ± 0.11 and the protein stability index (treatment: MLN4924 1 uM, 8 h) came to 2.05 ± 0.32.
The like results for DLDSRTDSDIPEIPPSSDRTPEIL [CDS1] were, in that order, 5.42 ± 0.21 and 5.51 ± 0.21.
For the sequence DLEDPLGGLLSYDEGGITKQPPVT [FBF1], the protein stability index is, setting by setting: (treatment: DMSO) 4.41 ± 0.28; (treatment: MLN4924 1 uM, 8 h) 4.35 ± 0.43.
The like results for DLGDIVARSESVLLHMPQPVNPEL [TRIM43] were, in that order, 3.67 ± 0.31 and 3.8 ± 0.25.
The like results for DLVDLFDGTSQSTGGSADLFGGFA [CLINT1] were, in that order, 2.69 ± 0.23 and 3.2 ± 0.32.
In the case of DLYKKVKKNSSPPLSLYGQLLWRE [CRY1], the protein stability index runs as follows: (treatment: DMSO) 2.64 ± 0.39; (treatment: MLN4924 1 uM, 8 h) 2.67 ± 0.67.
The like results for DLYRDVMLENYSNLVSVGYQAGKP [ZNF649] were, in that order, 2.82 ± 0.53 and 2.85 ± 0.23.
The like results for DNANILLQIDNARLAADDFRTKFE [KRT17] were, in that order, 3.27 ± 0.26 and 3.71 ± 0.28.
Consider DNLLPGMQPSKPQQPSLNTMIQQQ [CLINT1], for which the protein stability index stood at 4.38 ± 0.29 (treatment: DMSO) and 4.45 ± 0.28 (treatment: MLN4924 1 uM, 8 h).
In the case of DNWKSQVEPETRAVIRWMHSFNFV [CPN1], the protein stability index amounted to 2.26 ± 0.52 (treatment: DMSO) and 2.23 ± 0.14 (treatment: MLN4924 1 uM, 8 h).
The like results for DQLAFIEELFSLMVVNRLTEELGC [EID1] were, in that order, 3.01 ± 1.2 and 3.21 ± 0.51.
On to DQRNPAKESLETPSNGRIDIKQLI [SOAT1], for which the protein stability index is, setting by setting: (treatment: DMSO) 4.13 ± 0.26; (treatment: MLN4924 1 uM, 8 h) 4.24 ± 0.23.
The like results for DRKGYMFDYEYDWIGKQLPTPVGA [CSNK1G3] were, in that order, 2.55 ± 0.23 and 2.62 ± 0.25.
The like results for DRLNEQEGVPSVFNPPPSRPLQVN [FAF2] were, in that order, 4.23 ± 0.28 and 4.25 ± 0.1.
The like results for DSQEAQSPGHSSAGQEGEDTLRRR [TOR1AIP2] were, in that order, 5.58 ± 0.26 and 5.45 ± 0.58.
Take DTKMSFQWRIRNLPYPKDVYSVSV [DPCD]: the protein stability index runs as follows: (treatment: DMSO) 2.79 ± 0.52; (treatment: MLN4924 1 uM, 8 h) 2.71 ± 0.65.
Consider DTRVYIWDPHNGDILMEFGHLFPP [WSB1], for which the protein stability index came to 2.38 ± 0.98 (treatment: DMSO) and 2.42 ± 0.44 (treatment: MLN4924 1 uM, 8 h).
The like results for DWEIQEDSRLMCSSVQKALFEEED [CCDC3] were, in that order, 5.34 ± 0.25 and 5.54 ± 0.36.
Take DYGRKAEELLWRKVYYEVIQLIKT [SMG5]: the protein stability index (treatment: DMSO) worked out at 2.71 ± 0.57.
Take DYHLLHPVENIPEIILYWKHSTIF [SLC25A25]: the protein stability index was 2.71 ± 0.46 (treatment: DMSO) and 2.76 ± 0.63 (treatment: MLN4924 1 uM, 8 h).
The like results for DYLIQATNETNVNIPQMADTLFER [SNAP91] were, in that order, 3.64 ± 0.29 and 3.75 ± 0.2.
The like results for EAAFHPIEEYMVHVEEHFQLLARR [FUT8] were, in that order, 3.06 ± 0.29 and 3.34 ± 0.36.
The like results for EANGLLPDDKLTLFCEVSVVQDSV [SPOPL] were, in that order, 2.88 ± 0.49 and 3.03 ± 0.66.
Regarding EANSAKVQEDLEAEFQSLFSLLEE [FSD1], the protein stability index by setting is: (treatment: DMSO) 5.02 ± 0.09; (treatment: MLN4924 1 uM, 8 h) 5.05 ± 0.12.
The like results for EDEKLCDPNTRPVGEKNCTGPPCD [ADAMTSL2] were, in that order, 5.47 ± 0.21 and 5.46 ± 0.26.
The like results for EDGRPSLGSPYGQPPRFPVPHNGS [PDLIM4] were, in that order, 4.8 ± 0.17 and 4.63 ± 0.26.
The like results for EDQWGKGTLTPRMTTDFDLSLDNS [TRIM9] were, in that order, 4.7 ± 0.18 and 4.9 ± 0.33.
EDSAESRPWRAGVLAEGDNASRSL [PSD2]: the protein stability index by setting is: (treatment: DMSO) 5.21 ± 0.18; (treatment: MLN4924 1 uM, 8 h) 5.14 ± 0.084.
The like results for EDVKCQEDQKLQVLLTQIESKKHQ [TRIM15] were, in that order, 5.12 ± 0.32 and 5.18 ± 0.1.
Take EEALKDEEERAQDRIATTDDTTAM [MAGEA10]: the protein stability index reads like this: (treatment: DMSO) 5.7 ± 0.17; (treatment: MLN4924 1 uM, 8 h) 5.47 ± 0.24.
The like results for EEKVRDLLWAKFTNSDTPTSFNHM [TOR1AIP2] were, in that order, 3.08 ± 0.12 and 3.19 ± 0.13.
The like results for EELANLRASQREYEELRNSERAEV [RSPH3] were, in that order, 5.21 ± 0.4 and 5.18 ± 0.31.
The like results for EELDKYWSQQIEESTTVVTTQSAE [KRT18] were, in that order, 5.16 ± 0.27 and 5.23 ± 0.25.
For EELEQEELNKKMTNIRLPNVPSSS [CHMP4C], the protein stability index (treatment: DMSO) came to 5.27 ± 0.14 and the protein stability index (treatment: MLN4924 1 uM, 8 h) is 5.29 ± 0.15.
The like results for EELERRFEDEVKRLGWQQQAELQE [MTUS2] were, in that order, 5.01 ± 0.51 and 5.24 ± 0.35.
The like results for EELPCTCPLCTSDRGSCVSTTEGI [RHOBTB3] were, in that order, 4.53 ± 0.22 and 4.62 ± 0.27.
The like results for EEPSNKRVRPLARVTSLANLISPV [NET1] were, in that order, 3.43 ± 0.47 and 3.44 ± 0.19.
With EEREKEAAEQAERSQSSIVPEEEQ [SMARCE1], the protein stability index stood at 5.62 ± 0.36 (treatment: DMSO) and 5.57 ± 0.15 (treatment: MLN4924 1 uM, 8 h).
The like results for EESPNGSEGACEKEKQSRDFQGRI [RHOBTB1] were, in that order, 5.35 ± 0.21 and 5.32 ± 0.46.
The like results for EFEQFESTIGFKLPNHRAAKRLWK [EPB41L3] were, in that order, 3.17 ± 0.39 and 3.27 ± 0.61.
Take EFKQNIENVSVEMLLRKFAESKGT [FCHO1]: the protein stability index (treatment: DMSO) was determined as 2.84 ± 0.27 and the protein stability index (treatment: MLN4924 1 uM, 8 h) is 3.02 ± 0.32.
The like results for EFPYRMNHILECEFYLLELMDCCL [CCNC] were, in that order, 2.68 ± 0.31 and 2.84 ± 0.6.
The like results for EGASSQIGRAAGTGFTVNVAWNGP [HDAC6] were, in that order, 3.13 ± 0.34 and 3.38 ± 0.29.
The like results for EGSGHSTGEDSAFQEPDSPLPPAR [WEE1] were, in that order, 5.48 ± 0.14 and 5.52 ± 0.13.
Regarding EGTFRPERLLAVAERYGLSGSDVL [RAD51], the protein stability index reads like this: (treatment: DMSO) 3.23 ± 0.18; (treatment: MLN4924 1 uM, 8 h) 3.45 ± 0.11.
EGTSSIVMEIQKQIEKKEKKLHKI [TAF7L] gave a protein stability index (treatment: DMSO) of 4.18 ± 0.044 and a protein stability index (treatment: MLN4924 1 uM, 8 h) of 4.76 ± 0.15.
The like results for EGYTSFWNDCISSGLRGGILIELA [GOLPH3L] were, in that order, 3.14 ± 0.74 and 2.49 ± 0.52.
The like results for EHLDNLRLNLTNTKQNFFSQTPIL [INTS3] were, in that order, 2.35 ± 0.28 and 2.48 ± 0.32.
With EHRHAAAALAAMNGRKIMGKEVKV [TIA1], the protein stability index stood at 3.88 ± 0.23 (treatment: DMSO) and 3.85 ± 0.27 (treatment: MLN4924 1 uM, 8 h).
Take EIRKKVLKIYNKREEDFPSLREYN [MNAT1]: the protein stability index reads like this: (treatment: DMSO) 2.45 ± 0.43; (treatment: MLN4924 1 uM, 8 h) 2.64 ± 0.51.
The like results for EKGETMEVIEKPENDPEWWKCKNA [NCK2] were, in that order, 5.36 ± 0.32 and 5.486 ± 0.04.
The like results for EKIDKLEQDMERRKADFKAGKALV [ZC3H15] were, in that order, 4.74 ± 0.3 and 4.67 ± 0.23.
The like results for EKPPSGTKEKKHQCDHCERCFYTR [PLAGL1] were, in that order, 3.87 ± 0.26 and 4.3 ± 0.62.
Regarding EKSIEQTQIKGLKNKPKKMGHIKP [PHTF1], the protein stability index is, setting by setting: (treatment: DMSO) 3.93 ± 0.24; (treatment: MLN4924 1 uM, 8 h) 4.21 ± 0.25.
The like results for EKSQLIMQAEAEAASVRMRGEAEA [FLOT1] were, in that order, 5.04 ± 0.12 and 4.7 ± 0.26.
The like results for EKSTVVEGGEVRFNGKGKKIRKPR [DLX1] were, in that order, 4.77 ± 0.28 and 5.06 ± 0.33.
The like results for ELFIITQLQSMPSRELASMNLDIV [RHOBTB3] were, in that order, 2.31 ± 0.85 and 3.25 ± 0.55.
Take ELFQLQTYSLPPFLKAVLRQERVS [CDS1]: the protein stability index was 1.99 ± 0.28 (treatment: DMSO) and 1.97 ± 0.37 (treatment: MLN4924 1 uM, 8 h).
The like results for ELHIHRLRYLSSIWNILDLVVILL [PKD2L1] were, in that order, 2.28 ± 0.33 and 2.54 ± 0.28.
The like results for ELIGACEFMKDRLYFATLRNRPKS [CDC14A] were, in that order, 2.1 ± 0.5 and 2.24 ± 0.19.
